According to publication PMC12667520, “SP3 and DEP1 Orchestrate Panicle Architecture by Jointly Regulating APO2 Expression in Rice”:

T1: DEP1 (Oryza sativa, UniProt Q67UU9 1-426)
T1 sequence: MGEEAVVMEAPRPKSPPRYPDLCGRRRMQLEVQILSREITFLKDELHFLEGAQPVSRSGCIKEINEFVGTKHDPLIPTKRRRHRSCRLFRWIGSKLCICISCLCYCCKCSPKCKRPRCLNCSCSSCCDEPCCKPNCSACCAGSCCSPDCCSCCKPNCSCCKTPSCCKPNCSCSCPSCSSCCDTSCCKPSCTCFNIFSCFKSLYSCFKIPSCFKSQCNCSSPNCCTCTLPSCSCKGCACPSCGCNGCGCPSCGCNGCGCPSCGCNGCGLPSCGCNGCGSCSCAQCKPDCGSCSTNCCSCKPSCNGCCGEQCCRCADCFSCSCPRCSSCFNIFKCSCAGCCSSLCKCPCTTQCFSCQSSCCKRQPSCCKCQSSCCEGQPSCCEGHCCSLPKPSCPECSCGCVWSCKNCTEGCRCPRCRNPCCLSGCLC

T2: SP3 (Dof15) (Oryza sativa)
T2 chain: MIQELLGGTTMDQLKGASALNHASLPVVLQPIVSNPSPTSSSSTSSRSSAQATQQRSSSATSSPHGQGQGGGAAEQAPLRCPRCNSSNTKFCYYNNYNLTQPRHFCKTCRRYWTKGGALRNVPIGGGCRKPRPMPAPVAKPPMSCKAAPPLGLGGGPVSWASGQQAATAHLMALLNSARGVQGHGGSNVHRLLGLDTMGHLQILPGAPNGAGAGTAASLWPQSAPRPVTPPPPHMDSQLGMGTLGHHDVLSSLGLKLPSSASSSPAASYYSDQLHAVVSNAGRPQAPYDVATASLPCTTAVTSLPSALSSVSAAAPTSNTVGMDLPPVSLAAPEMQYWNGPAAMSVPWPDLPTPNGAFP

B1: Bio-Probe (APO2 promoter) (dsDNA)
DNA 1: ACGCATGCAGGAGTATCTTTTTTCTTCGGAAGAGGAACAGTGAC
DNA 2: GTCACTGTTCCTCTTCCGAAGAAAAAAGATACTCCTGCATGCGT

Key:
[1] = target: FLAG-DEP1 (rice (Oryza sativa)) (UniProt Q67UU9)
[2] = target: T1, DEP1; assay: EMSA; LightShift Chemiluminescent EMSA Kit (Thermo), manufacturer's instructions; buffer, salt, pH and temperature not stated; conditions: protein: recombinant; tags: MBP; label: biotin; blunt
[3] = target: T2, SP3 (Dof15); assay: as above; conditions: protein: recombinant; tags: GST (pGEX-6p); label: biotin; blunt

| Molecule | share of DEP1-GFP signals localised to the nucleus in rice protoplasts: 16% without SP3, 76% with SP3-HA co-expressed [1] [%] | binding result [2] | binding result [3] |
| --- | --- | --- | --- |
| HA-SP3 (natural protein) | 76 |  |  |
| B1 |  | no binding | binds |
